Source: article PMC5802837, “Lymphocyte-specific protein 1 regulates mechanosensory oscillation of podosomes and actin isoform-based actomyosin symmetry breaking” (Nature Communications, 2018)

Key:
Experiment in all cases: co-IP; anti-GFP immunoprecipitation (µMACS anti-GFP Microbeads) from lysates of macrophages expressing GFP-fused constructs (500 mM NaCl, 2% Triton X-100, 50 mM Tris-HCl pH 8.0), washes with RIPA and high-salt RIPA; GFP alone as control; western blot of endogenous partners, densitometry
[1] = target: supervillin construct SV1-830-GFP (UniProt O46385)
[2] = target: GFP-fused full length LSP1 (human) (UniProt P33241)
[3] = target: T1, supervillin construct SV1-830-GFP (UniProt O46385-2 1-830); settings: partners not purified
T1 construct: supervillin, N-terminal region, residues 1-830; as far as recalled the Luna laboratory constructs are bovine supervillin; also called GFP-SV1-830; GFP-supervillin 1-830; source: primary human macrophages, transfected, in lysate

In the case of “Ser19 phosphorylated myosin light chain (pMLC), endogenous (from UniProt P24844 1-172) (natural protein)”, the coprecipitated amount relative to LSP1-GFP [1] is reported as 9 fold.

“α-cardiac actin, endogenous (from UniProt P68032 1-377) (natural protein)” gave a coprecipitated α-cardiac actin relative to SV1-830-GFP [2] of 0.33 fold.

B1: myosin IIA, endogenous (natural protein, UniProt P35579 1-1960, looked up)
chain: MAQQAADKYLYVDKNFINNPLAQADWAAKKLVWVPSDKSGFEPASLKEEVGEEAIVELVENGKKVKVNKDDIQKMNPPKFSKVEDMAELTCLNEASVLHNLKERYYSGLIYTYSGLFCVVINPYKNLPIYSEEIVEMYKGKKRHEMPPHIYAITDTAYRSMMQDREDQSILCTGESGAGKTENTKKVIQYLAYVASSHKSKKDQGELERQLLQANPILEAFGNAKTVKNDNSSRFGKFIRINFDVNGYIVGANIETYLLEKSRAIRQAKEERTFHIFYYLLSGAGEHLKTDLLLEPYNKYRFLSNGHVTIPGQQDKDMFQETMEAMRIMGIPEEEQMGLLRVISGVLQLGNIVFKKERNTDQASMPDNTAAQKVSHLLGINVTDFTRGILTPRIKVGRDYVQKAQTKEQADFAIEALAKATYERMFRWLVLRINKALDKTKRQGASFIGILDIAGFEIFDLNSFEQLCINYTNEKLQQLFNHTMFILEQEEYQREGIEWNFIDFGLDLQPCIDLIEKPAGPPGILALLDEECWFPKATDKSFVEKVMQEQGTHPKFQKPKQLKDKADFCIIHYAGKVDYKADEWLMKNMDPLNDNIATLLHQSSDKFVSELWKDVDRIIGLDQVAGMSETALPGAFKTRKGMFRTVGQLYKEQLAKLMATLRNTNPNFVRCIIPNHEKKAGKLDPHLVLDQLRCNGVLEGIRICRQGFPNRVVFQEFRQRYEILTPNSIPKGFMDGKQACVLMIKALELDSNLYRIGQSKVFFRAGVLAHLEEERDLKITDVIIGFQACCRGYLARKAFAKRQQQLTAMKVLQRNCAAYLKLRNWQWWRLFTKVKPLLQVSRQEEEMMAKEEELVKVREKQLAAENRLTEMETLQSQLMAEKLQLQEQLQAETELCAEAEELRARLTAKKQELEEICHDLEARVEEEEERCQHLQAEKKKMQQNIQELEEQLEEEESARQKLQLEKVTTEAKLKKLEEEQIILEDQNCKLAKEKKLLEDRIAEFTTNLTEEEEKSKSLAKLKNKHEAMITDLEERLRREEKQRQELEKTRRKLEGDSTDLSDQIAELQAQIAELKMQLAKKEEELQAALARVEEEAAQKNMALKKIRELESQISELQEDLESERASRNKAEKQKRDLGEELEALKTELEDTLDSTAAQQELRSKREQEVNILKKTLEEEAKTHEAQIQEMRQKHSQAVEELAEQLEQTKRVKANLEKAKQTLENERGELANEVKVLLQGKGDSEHKRKKVEAQLQELQVKFNEGERVRTELADKVTKLQVELDNVTGLLSQSDSKSSKLTKDFSALESQLQDTQELLQEENRQKLSLSTKLKQVEDEKNSFREQLEEEEEAKHNLEKQIATLHAQVADMKKKMEDSVGCLETAEEVKRKLQKDLEGLSQRHEEKVAAYDKLEKTKTRLQQELDDLLVDLDHQRQSACNLEKKQKKFDQLLAEEKTISAKYAEERDRAEAEAREKETKALSLARALEEAMEQKAELERLNKQFRTEMEDLMSSKDDVGKSVHELEKSKRALEQQVEEMKTQLEELEDELQATEDAKLRLEVNLQAMKAQFERDLQGRDEQSEEKKKQLVRQVREMEAELEDERKQRSMAVAARKKLEMDLKDLEAHIDSANKNRDEAIKQLRKLQAQMKDCMRELDDTRASREEILAQAKENEKKLKSMEAEMIQLQEELAAAERAKRQAQQERDELADEIANSSGKGALALEEKRRLEARIAQLEEELEEEQGNTELINDRLKKANLQIDQINTDLNLERSHAQKNENARQQLERQNKELKVKLQEMEGTVKSKYKASITALEAKIAQLEEQLDNETKERQAACKQVRRTEKKLKDVLLQVDDERRNAEQYKDQADKASTRLKQLKRQLEEAEEEAQRANASRRKLQRELEDATETADAMNREVSSLKNKLRRGDLPFVVPRRMARKGAGDGSDEEVDGKADGAEAKPAE
notes: non-muscle myosin IIA heavy chain, human, precipitated and detected with anti-myosin IIA antibodies; also called non-muscle myosin IIA; source: endogenous, primary human macrophages (lysate or fixed cells)
With B1 the “coprecipitated amount relative to LSP1-GFP” value [3] was 1.6 fold.
